Measured values reported in article PMC2804849.
Values belong to the substance of their own block, whether it stands above or below them.

What was measured:
[1] = target: SCF (Homo sapiens) (UniProt Q13616); conditions: cited from earlier work
[2] = target: Nedd8-conjugated RC^CFP (human) (UniProt P62877); assay: FRET or BRET
[3] = target: Rbx1-Cul1-CFP complex (RC^CFP) (human) (UniProt P62877); assay: FRET or BRET
[4] = target: SCF holoenzyme (FRET experiment of Figure S2c) (human) (UniProt P62877); assay: FRET or BRET

Cdc34, sequence (P49427 whole entry): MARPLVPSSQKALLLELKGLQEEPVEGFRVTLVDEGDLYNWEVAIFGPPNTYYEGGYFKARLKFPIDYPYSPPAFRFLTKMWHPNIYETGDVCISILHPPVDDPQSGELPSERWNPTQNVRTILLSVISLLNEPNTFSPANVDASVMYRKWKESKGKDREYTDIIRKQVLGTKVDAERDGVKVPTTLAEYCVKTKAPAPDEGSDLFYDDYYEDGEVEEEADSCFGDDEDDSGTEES

Substance: Cdc34 (from UniProt P49427)
- Kd [1]: 20 nM

- fold change of the kinetic parameters against uncharged Cdc34 [2]: 2 fold
Substance: human Cdc34 charged with ubiquitin (Cdc34~Ub) (from UniProt Q712K3 1-238; P0CG48 1-76) (complex)

- Kd [3]: 74 nM
- koff [3]: 35 s⁻¹
- kon [3]: 4.7e+08 M⁻¹ s⁻¹
- fold change of koff against RC^CFP heterodimer [4]: < 2 fold
Substance: human Cdc34, WT, labelled with Lumio Green at the C-terminus (from UniProt Q712K3 1-238) (enzyme)
